Results: patent publication EP4674438A1, “ANTIBODY-DRUG CONJUGATE CONTAINING ANTI-CD138 ANTIBODY” (priority 2023, dated 2024)

T1: human CD138 protein (human, UniProt P18827 23-310)
T1 sequence: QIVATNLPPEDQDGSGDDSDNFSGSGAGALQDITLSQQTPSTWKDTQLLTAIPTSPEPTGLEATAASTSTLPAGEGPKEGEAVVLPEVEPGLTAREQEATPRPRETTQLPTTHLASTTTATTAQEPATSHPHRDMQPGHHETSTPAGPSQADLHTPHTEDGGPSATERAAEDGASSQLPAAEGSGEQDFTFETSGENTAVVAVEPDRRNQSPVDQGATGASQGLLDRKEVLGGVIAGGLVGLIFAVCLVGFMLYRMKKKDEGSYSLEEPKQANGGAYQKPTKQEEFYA

B1: Antibody-drug conjugate 10 (ADC10) (antibody, human IgG1, kappa, L234A L235A, V domains shown)
VH: QVQLVQSGAEVKKPGSSVKVSCKASGYTFSNYWIEWVRQAPGQGLEWIGEILPGTGRTIYNEKFKGRATFTADESTSTAYMELSSLRSEDTAVYYCARRDYYGNFYYAMDYWGQGTLVTVSS
VL: DIQMTQSPSSLSASVGDRVTITCSASQGINNYLNWYQQKPGKAPKLLIYYTSTLQSGVPSRFSGSGSGTDYTLTISSLQPEDFATYYCQQYSKLPRTFGGGTKVEIKR
modifications: MC-VC-PAB-MMAE on cysteine sulfhydryls after TCEP reduction of hinge disulfide bonds; positions not given; DAR 7.8
B2: Antibody 5 (antibody, human IgG1, kappa, L234A L235A, V domains shown)
VH: B1 VH
VL: B1 VL
notes: Humanized; also called anti-CD138 antibody
B3: Antibody-drug conjugate 3 (ADC3) (antibody, V domains shown)
VH: QVQLQQSGSELMMPGASVKISCKATGYTFSNYWIEWVKQRPGHGLEWIGEILPGTGRTIYNEKFKGKATFTADISSNTVQMQLSSLTSEDSAVYYCARRDYYGNFYYAMDYWGQGTLVTVSS
VL: DIQMTQSTSSLSASLGDRVTISCSASQGINNYLNWYQQKPDGTVELLIYYTSTLQSGVPSRFSGSGSGTDYSLTISNLEPEDIGTYYCQQYSKLPRTFGGGTKLEIKR
modifications: MC-VC-PAB-MMAE on cysteine sulfhydryls after TCEP reduction of hinge disulfide bonds; positions not given; DAR 7.1
B4: Antibody 1 (antibody, V domains shown)
VH: B3 VH
VL: B3 VL
notes: expressed in HEK293 cells; Same light chain as Antibody 2 (nBT062); also called anti-CD138 antibody
B5: Antibody-drug conjugate 4 (ADC4) (antibody, human IgG1, kappa, V domains shown)
VH: B3 VH
VL: B3 VL
modifications: MC-VC-PAB-MMAF on cysteine sulfhydryls after TCEP reduction of hinge disulfide bonds; positions not given; DAR 2.2

What was measured:
human CD138 protein [1] = target: T1, human CD138 protein; experiment: cell-based or functional assay
human CD138 protein [2] = target: T1, human CD138 protein; experiment: flow cytometry on AsPC-1 cells (legend of Figure 1)
human CD138 protein [3] = target: T1, human CD138 protein; experiment: flow cytometry on AsPC-1 cells, 0.001 to 100 ug/ml, anti-human IgG Fc-APC

| Binder | IC50 (ng/ml), cytotoxicity, Capan-1 (CD138-positive), CellTiter-Glo 2.0 (human CD138 protein [1]) | also measured |
| --- | --- | --- |
| B1 | 29 ng/mL |  |
| B2 |  | binding result (human CD138 protein [2]): binds |
| B3 | 13 ng/mL |  |
| B4 |  | binding result (human CD138 protein [3]): binds |
| B5 | 165 ng/mL |  |
